What was measured:
Format in all cases: biochemical
[1] = LC-MS assay of GH3 conjugation of IAA with Asp or Glu; conditions: LC-MS; for Detected auxin conjugates: IAA-Asp: IAA with Asp; for Detected auxin conjugates: IAA-Glu: IAA with Glu
Procedure, shortened: (§1)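 Kinetic parameters come from Michaelis-Menten fits of initial velocities. Velocities reflect LC-MS quantification, against standards, of Asp or Glu conjugates formed by purified GH3 (44 to 164 μg/mL) with 5 mM ATP and MgCl2 at pH 8.0, 30° C.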

[2] = LC-MS assay of GH3 conjugation of dicamba with Asp or Glu; conditions: LC-MS; for Detected auxin conjugates: Dicamba-Asp: dicamba with Asp; for Detected auxin conjugates: Dicamba-Glu: dicamba with Glu
Experimental: To detect and monitor the formation of acyl conjugates with 2,4-D or dicamba, a sensitive LC-MS method was developed using the respective amino acid conjugate standards. […] […] […] The supernatant was diluted 20× in water and then analyzed by LC-MS (AB Sciex 4000 QTrap coupled with Shimadzu Nexera UHPLC) using a Phenomenex Luna 3 μm Phenyl-Hexyl (00B-4256-Y0) column. The concentration of the conjugates was calculated based on the standards. Kinetic parameters were estimated by fitting initial velocity values to the Michaelis-Menten equation.
The GH3 superfamily conjugase activity analysis of IAA, 2,4-D or dicamba with Asp or Glu was done using LC-MS to analyze the final conjugate products as described in Example 1. Protein sequences of GH3 homologs (Table 3) were obtained from public databases (NCBI, http://www.ncbi.nlm.nih.gov/) by Blast analysis of AtGH3.17 protein sequence (accession # Q9FZ87). Coding sequences were designed for optimal expression in E. coli based on the protein sequences and synthesized. Synthesized coding sequences along with N-term his-tag coding sequences were cloned into a pET24a-based E. coli expression vector. The E. coli expression vectors were transformed into OverExpress C41(DE3) cells (Lucigen) for protein expression. Recombinant E. coli strains were inoculated into 5 ml LB media supplemented with 40 mg/L kanamycin and cultured overnight at 37° C. The overnight culture (0.5 mL) was inoculated into 50 mL LB medium plus 40 mg/L kanamycin and grown at 30° C. until OD600 reached 0.6. The cultures were induced with 0.2 mM IPTG at 16° C., 230 rpm overnight. Cells were harvested by centrifugation at 7,000 rpm for 10 mins. The cell pellet from 50 mL of cell culture was frozen and thawed twice and then lysed in 800 μL lysis buffer A (150 mM NaCl, 50 mM Tris-HCl pH 8.0, 5 mM MgCl2, 10% glycerol) plus 20 mM imidazole, 1 mM DTT, 0.2 mg/ml lysozyme, 1/200 protease inhibitor cocktail (EMD set3, EDTA free) and 1/2000 endonuclease. Lysate was then centrifuged at 13,000 rpm for 30 min at 4° C. Supernatant was loaded onto 200 μL Ni-NTA columns pre-equilibrated with buffer A with 20 mM imidazole at 4° C. Each column was then washed with (1) 2×800 μL of buffer A with 10 mM imidazole, (2) 2×800 μL of buffer A with 20 mM imidazole and (3) 2×200 μL of buffer A with 50 mM imidazole. Protein was eluted with 200 μL of buffer A with 250 mM imidazole. The concentration was measured by Bradford assay. Purified protein was used in conjugation reaction assays as described in example 1.

[3] = LC-MS assay of GH3 conjugation of 2,4-D with Asp or Glu; conditions: LC-MS; for Detected auxin conjugates: 2,4-D-Asp: 2,4-D with Asp; for Detected auxin conjugates: 2,4-D-Glu: 2,4-D with Glu
Procedure, shortened: as §1

B1: SlGH3-8: GH3 protein, Solyc07g054580.2 (protein, listed as Solanum lycopersicum)
chain: MTNINCKDKIETDIIGWFDEVADDSAVVQRRTLRRILEMNHGVEYLKKWIGDIKIEEIDENLLESTYASLVPLASHADIEPFTKRIADGDTTPLLTQQPITNLSLSSGTTDGRQKFVPFTHHSSQTTLQIFKLAAAYRSRIYPIRRGGRILEFIYSSKQCKTKGGIIVGTATTHYYASDEFKIKQQQTKSFTCSPQEVISCGDYKQSTYCHLLLGLYFSHEVEFVTSAFAYSIVEAFRSFEEMWKELCHDIREGSLSSIINIDKVRKSVSGITQPNPELASRIESICVELERADWFSIIPKLWPNAKYVYSIMTGSMMPYLTKLRHYAGELPLVSADYGSTESWIGVNLDPSNPPEKVTFAVVPTFSYFEFIPLYKHKSNYNYQNVNLNSTNDDYIEGNSMPLCQVKSGQQYEIVITTFTGLYRYRLGDVVEVDGFYKKTPKLNFICRRNLILAINIDKNTEKDLQLVVERGARILSKGTRRAELVDFTSHANVTKQPGHYVIYWEIKGEIDEKVLDECCRDMDASFVDHGYVVSRRTKSIGPLELCIVERGTFKKILESYIGNGAALSQFKTPRCTSNKELLNILNVCTIKRFYSTAYG
Q: For B1, which “Detected auxin conjugates: IAA-Asp” value [1] is on record?
A: Yes

Q: And the “Detected auxin conjugates: IAA-Glu” value [1]?
A: Yes

Q: What about the “Detected auxin conjugates: Dicamba-Asp” value [2] of the same molecule?
A: No

Q: And the “Detected auxin conjugates: Dicamba-Glu” value [2]?
A: No

Q: And the “Detected auxin conjugates: 2,4-D-Asp” value [3]?
A: Yes

Q: What about the “Detected auxin conjugates: 2,4-D-Glu” value [3] of the same molecule?
A: Yes

B2: GmGH3-2: GH3 protein, accession XP_003521802.1 (protein)
chain: MLEKVEEFNMDKVIQEFELLTRDAERVQRETLKRILEDNASAEYLQSLGLNGRTDPESFKACVPMVTHKELEPYIYRIIDGDASPILTGKPITTMSLSSGTTQGKPKYVPWNDELYETTMQIYQTSFAFRNREFPIKNGKALSFIYGSKQLKTKGGLAARTATSNVFCSAGYKCAMRALQSQCCSPDEVIFGPDFFQSLYCHLLCGLIFREEVEFVSSTFAHSIVHAFRTFEQVWEELCNDIREGVLTRNVTVPSIRMAMSKLLKPNPELANAIHKKCTGLSNWYGLIPELFPNAKYIYGIMTGSMEPYLKKMRHYAGELPLLTADYGSSEGWIAANVNPQLPPEYATYAVLPHIGYFEFIPLLELENTKPLGLTQVKVGQEYEIVMTNPAGLYRYRLGDVVKVMGFHNSTPELKFIRRSSLLLNINIDKNTEKDLQLAVEAAGKLLAEEKLEVVDFSSQVDLSKEPGHYVIFWEISGDASQELLHECCNCLDKSFVDAGYTSSRKVNCIGALELRLVRRGTFQKILDHYLGLGTAVSQYKTPRCVGPTNTRVLQILSENVVNNYLSTAFN
modifications: Glycine max
Q: For B2, which “Detected auxin conjugates: IAA-Asp” value [1] is on record?
A: Yes

Q: And the “Detected auxin conjugates: IAA-Glu” value [1]?
A: No

Q: What about the “Detected auxin conjugates: Dicamba-Asp” value [2] of the same molecule?
A: No

Q: And the “Detected auxin conjugates: Dicamba-Glu” value [2]?
A: No

Q: What about the “Detected auxin conjugates: 2,4-D-Asp” value [3] of the same molecule?
A: No

Q: And the “Detected auxin conjugates: 2,4-D-Glu” value [3]?
A: No

B3: ZmACN26159: GH3 protein, accession ACN26159 (protein)
chain: MTICSSEEIIDEFELLTRDARRVQQDTLRKILELNGDAEYLNRFNLGRRTDSKSFKSCIPLCVHSDIESYIQRIADGDDSPVLTGKPITSLSLSSGTTQGKPKFLPFNDELLESTFQIFRTSYAFRNREYPIVNGKALQFVYGSKQVFTQGGILAATATTNLYRSQRFKEAMKDVMTQCCSPDEVIFGPDFHQSLYCHLLCGLINSDEVQFVFSPFAHSLVHAFHSLEEVWEDLCADIRDGVLSKRVTAPSIRQAVSKILRPNPELASSIYIKCQSLSNWYGVIPTLWPNVKYIYGIMTGSMEPYLKKLRHYAGHLPLLSADYGASEGWVGSNINPTLPPEEVTYAVLPNIAYFEFIPLEKPKWEETEICSSVHYIESEPVGLTEVEVGKIYEVVITNFAGLYRYRLGDIVKIAGFHNATPELQFICRRSLVLSVNIDKNTEKDLQLAVEAAEKLLAAEKLEVVDFTSLVDRSSEPGHYVIFWELSSDDGASEDVLSGCASCMDLAFADAGYVGSRKTQTIGALELRVLRKGAFAQVMNHYLSLGGAVSQFKTPRFVSQSNSKVLQILSRNVTRSYFSTAYGL
modifications: Zea mays
Q: What does the source list for B3?
A: Detected auxin conjugates: IAA-Asp [1]: No; Detected auxin conjugates: IAA-Glu [1]: No; Detected auxin conjugates: Dicamba-Asp [2]: No; Detected auxin conjugates: Dicamba-Glu [2]: No; Detected auxin conjugates: 2,4-D-Asp [3]: No; Detected auxin conjugates: 2,4-D-Glu [3]: No

B4: GmGH3-6: GH3 protein, accession XP_003540891.1 (protein)
chain: MPQHQPTLMEPVLSYNNSTNNGNGNSDYDIISWFEDVSQNAGFVQTQLLFQILKQNYGVEYLKKWLGSYNILEMDACALESLFSSVVPLASHADFEPFIQRIADGDTAPLLTQQPITTLSLSSGTTEGRQKFVPFTRHSAQTTLQIFTLAAAYRSRIYPIRQGGRILEFIYSSNRFKTKGGLTVGTATTHYYASEEFNIKQHKTKSFTCSPQEVISGGDYKQSTYCHLLLGLFFSDQVEFITSAFIYSMVQAFTTFEELWREICNDIRDGTLSSRIKSPKMRKAVLDIISPNPNLAAKLEDACKGLEVVDWFGLIPKLWPNAKYVYSIMTGSMQPYLKKLRHYANGLPLVSADYGSTESWIGVNVDPSLPPEDVTFAVVPTFSYFEFIPLHRNEKNFSSGGDDFIEDKPIPLSQIKVGQEYEVVLTTFTGLYRCRLGDVVEVAGFHNGTPKLNFVCRRKLILTINIDKNTEKDLQLVVERGSHILNMTSRGELVDFTSYADVSKQPGHYVIYWEIKGEVEDKILGACCNEMDKSFADHGYVVSRKTNSIGPLELCVLESGTFKKILDSFIANGAALSQFKTPRCTNNHVLLKILNTCTTKKFRSTAYNSSMEQ
modifications: Glycine max
Q: Which “Detected auxin conjugates: IAA-Asp” value [1] does the source give for B4 here?
A: Yes

Q: And the “Detected auxin conjugates: IAA-Glu” value [1]?
A: Yes

Q: What about the “Detected auxin conjugates: Dicamba-Asp” value [2] of the same molecule?
A: No

Q: What about the “Detected auxin conjugates: Dicamba-Glu” value [2] of the same molecule?
A: No

Q: What about the “Detected auxin conjugates: 2,4-D-Asp” value [3] of the same molecule?
A: No

Q: And the “Detected auxin conjugates: 2,4-D-Glu” value [3]?
A: No

B5: SlGH3-1: GH3 protein, SL2.40ch01: 78555183-78557768 (protein, listed as Solanum lycopersicum)
chain: MLEKIEMKFDPEEVIEEFEALTKEAGKVQEETLKKILEENGSTVYLQQWGLNGRTDPEIFKSCVPLVTHKDLEPYIQRIADGDLSPVLTGKPITTISLSSGTTQGRPKFVPFNDELMESTMQIYKTSFAFRNREFPIENGKALQFIYSSKQFKTKGGLAAGTATTNVYRNAHFKKTMRAMQTPCCSPDEVIFGPDFHQSLYCHLLCGLIFRDEVQVVSSTFAHSIVHAFRTFEQVWEELVADIREGVISSRVTVPSMRSAIMKLLKPDPEQADSIYNKCSGLSNWYGLIPVLFPSARYIYGIMTGSMEPYLKKLRHYAGELPLLSADYGSSEGWIGANVNPKLPPELVTYAVLPNIGYFEFIPLRVNLDGLEPTPVGLAEVKLGEEYEIVVTNFAGLYRYRLGDVVKIKGFHNATPELQFICRSNLILSINIDKSTEKDLQLAVEAAARLLVDEKLEVVDFTSHANVATDPGHYVVFWELSGEASDETLQECCNCLDKSFVDAGYVGSRKVNVIGALELRVVKKGTFHKILDHFVGLGGAVSQFKTPRCVGQNNSRLLQILCYDVVKSYFSTAY
Q: For B5, which “Detected auxin conjugates: IAA-Asp” value [1] is on record?
A: Yes

Q: And the “Detected auxin conjugates: IAA-Glu” value [1]?
A: No

Q: What about the “Detected auxin conjugates: Dicamba-Asp” value [2] of the same molecule?
A: No

Q: What about the “Detected auxin conjugates: Dicamba-Glu” value [2] of the same molecule?
A: No

Q: What about the “Detected auxin conjugates: 2,4-D-Asp” value [3] of the same molecule?
A: No

Q: What about the “Detected auxin conjugates: 2,4-D-Glu” value [3] of the same molecule?
A: No

B6: SlGH3-14: GH3 protein, SGN-E745758 (protein, listed as Solanum lycopersicum)
chain: MKMMVENIEKKFDAEEVIEDFEVLTKDAGRIQEETLEKILKENGGTEYLKQWGLNGRTDVETFKACVPIVGHNDLEPYIQRIADGDLSPILTGKPIETISLSSGTTQGKPKFVPFNDELMDSTMQIFKTSFAFRNREFPIGNGKALQFIYSSKQFKTKGGLAAGTATTNVYRNAQFKKTMNAMSTPVCSPDEVIFGPDFQQSLYCHLLSGLIFRDEVQVVSSTFAHSIVHAFRTFEQVWEELVVDIREGVLSSRVTVPSIRLAMSKLLKPDPELAETIYSKCSSLSNWYGLIPELFPNTKYIYGIMTGSMEPYLKKLRHYAGELPLLSADYGSSEGWVGVNVNPKFPPEMVTYAVLPNIGYFEFLPLEENLVGVEQANSPVGLTEVKLGEEYEIVFTNFAGLYRYRLGDVVKIKGFHNGTPELQFVCRRNLLLSINIDKNTEKDLQLAVEAAGKHLVDEKLEVMDFTSHVNVSADPGHYVIFWELSGEATDEILQECCNCLDKSFLDAGYVSSRKVNAIGALELRIVKRGTFHKILDHFVGLGGAVSQFKTPRCVGPKNSSLIQILSSNVVKSYSSTAFC
Q: Which “Detected auxin conjugates: IAA-Asp” value [1] does the source give for B6 here?
A: No

Q: What about the “Detected auxin conjugates: IAA-Glu” value [1] of the same molecule?
A: No

Q: And the “Detected auxin conjugates: Dicamba-Asp” value [2]?
A: No

Q: What about the “Detected auxin conjugates: Dicamba-Glu” value [2] of the same molecule?
A: No

Q: And the “Detected auxin conjugates: 2,4-D-Asp” value [3]?
A: No

Q: What about the “Detected auxin conjugates: 2,4-D-Glu” value [3] of the same molecule?
A: No

Reference: patent publication US20150351390A1, “COMPOSITIONS AND METHODS FOR AUXIN-ANALOG CONJUGATION” (PIONEER HI-BRED INTERNATIONAL, INC., priority 2012, published 2015)
